Data as given in publication PMC3406103.

Test system: C/EBPβ (endogenous, HaCaT nuclear extract)
Test: EMSA
Conditions: 10 mM Tris-HCl pH 7.5, 50 mM NaCl, 1 mM EDTA, 15% glycerol, 1 mg/ml BSA, 25 µg/ml poly(dI-dC), 11.5 mM DTT, 26 µg/ml aprotinin, 1.5 mM PMSF, 0.5 mg/ml salmon …; scale: % of pLXSN control, normalized to C/EBPβ level

## CCL20 promoter nt 734-748
  binding signal: < 50
